Columns and labels:
[1] = tested on: mouse CIA model (DBA1/J mice); assay: Mouse collagen induced arthritis (CIA) model, therapeutic protocol; assay type: in vivo; details: 10 mg/kg, 3x week, i.p., day 31 to day 46
Protocol: DBA1/J mice (male, 6-7 weeks old, approx 20 gram) were obtained from Centre d'Elevage Regional Janvier (Laval, France). Mice were kept on a 12 hr light/dark cycle (0700-1900). Temperature was maintained at 22° C., and food and water were provided ad libitum.
One day before the experiment, CII solution (2 mg/mL) was prepared with 0.05 M acetic acid and stored at 4° C. Just before the immunization, equal volumes of adjuvant […] and CII were mixed by a homogenizer in a pre-cooled glass bottle in an ice water bath. Extra adjuvant and prolonged homogenization may be required if an emulsion is not formed. 0.1 mL of the emulsion was injected intradermally at the base of the tail of each mouse on day 1, a second booster intradermal injection (CII solution at 2 mg/mL in […] 0.1 mLemulsion) was performed on day 21. This immunization method was modified from published methods (Brand et al, 2007, Collagen-induced arthritis. Nature Protocols; vol 2 (5): 1269-1275; Lin et al., 2007, Anti-rheumatic activities of histone deacetylase (HDAC) inhibitors in vivo in collagen-induced arthritis in rodents. Br J Pharmacol. April; 150 (7):829-31).
The therapeutic effects of the antibodies were tested in the mouse CIA model. Mice were randomly divided into equal groups and each group contained 10 mice. All mice were immunized on day 1 and boosted on day 21. Therapeutic dosing lasted from day 31 to day 46. The negative control group was treated with vehicle (PBS) and the positive control group with Enbrel (10 mg/kg, 3× week, i.p.). An antibody of interest was tested at 10 mg/kg, i.p. 3 times per week.
Anti-IL17C antibodies were administered i.p. three times a week at 10 mg/kg. […]
Arthritis was scored according to the method of Khachigian 2006 (Collagen antibody-induced arthritis. (2006) Nature Protocols 1, 2512-6), Lin et al 2007 (supra); Nishida et al. 2004 (Histone deacetylase inhibitor suppression of autoantibody-mediated arthritis in mice via regulation of p16INK4a and p21(WAF1/Cip1) expression. Arthritis Rheum. 10: 3365-76); and Brand et al. 2007 (supra). […]

[2] = tested on: Balb/c N mice, IMQ induced psoriasis; assay: Imiquimod (IMQ) psoriasis-like mouse model; assay type: in vivo; details: 10 mg/kg i.p., 3 days before and at D0
Excerpt: The pro-inflammatory function of IL17C in the skin was examined in a non-infectious cutaneous inflammation mouse model of psoriasis where topical TLR7-TLR8 agonist Imiquimod induces psoriatic skin lesions characterized by epidermal proliferation and leukocyte infiltration, which are dependent on pathogenic TH17 cytokines (Van der Fits et al., J of Immunol. 2009 May 1; 182(9):5836-45.). The role of IL17C in this particular model was recently documented (Ramirez-Carrozzi et al, Nat Immunol. 2011 12(12):1159-66) and a convincing genetic proof of the IL17C role in the disease model was provided with IL17C^−/− mice. […]
In order to induce a psoriatic-like response, a daily topical dose of 62.5 mg of Imiquimod cream on the shaved back and the right ear for 5 consecutive days (D0-D4), translating in a daily dose of 3.13 mg of the active compound. The control group was constituted with mice receiving the same quantity of Vaseline cream. […] Body weight was daily recorded. At necropsy and at the days indicated, the ears and the back skin thicknesses were measured using a micrometer (Mitutoyo). […] Spleen and thymus weight was measured.
Mice were randomly divided into equal groups (n=10). […] The control group was constituted with control mice receiving the same quantity of Vaseline. […]

B1: MOR12743: anti-mouse IL17C HuCAL antibody; CDRs SEQ ID NO: 31-36, VL 37, VH 38; human/mouse chimeric IgG2a (antibody, V domains shown)
VH: QVQLVQSGAEVKKPGASVKVSCKASGYTFTSNFIHWVRQAPGQGLEWMGWISPYNGDTNYAQKFQGRVTMTRDTSISTAYMELSRLRSEDTAVYYCARESVYYGSDYGYNGMDIWGQGTLVTVSS
VL: DIELTQPPSVSVSPGQTASITCSGDNLGEEYVSWYQQKPGQAPVLVIYDDTKRPSGIPERFSGSNSGNTATLTISGTQAEDEADYYCASWDLWSVEVFGGGTKLTVLGQ
modifications: mouse IgG2a constant regions; VH; VL
[1]
  inhibition of inflammation / disease progression (clinical score): significant inhibition
[2]
  effect on epidermal thickness induced by IMQ in the mouse ear skin (histology): significant
